± gives the uncertainty stated by the source.
B1: Chromodomain-helicase-DNA-binding protein 7, residues 2564 to 2605; numbered along this chain, Q9P2D1 (parent)
chain: DPDTRIPVINLEDGTRLVGEDAPKNKDLVEWLKLHPTYTVDM

Variants of: B1
Experiment: abundance fitness (aPCA) (normalised: wild type 0, dead -1); higher = more abundant; growth selection in yeast, the domain comes from the species named
Conditions: Homo sapiens

First: DPDTRIPVINLEDGTGLVGEDAPKNKDLVEWLKLHPTYTVDM [R16G]
Second: DPDTRIPVINLEDGTNLVGEDAPKNKDLVEWLKLHPTYTVDM [R16N]
The abundance fitness of the first is lower: -0.4 ± 0.053 for the first, -0.128 ± 0.12 for the second.

DPDTRIPVINLEDGTSLVGEDAPKNKDLVEWLKLHPTYTVDM [R16S] and DPDTRIPVINLEDGTVLVGEDAPKNKDLVEWLKLHPTYTVDM [R16V] are within error of each other in abundance fitness: 0.132 ± 0.047 for the first, 0.059 ± 0.072 for the second.

Compared with DPDTRIPVINLEDGTWLVGEDAPKNKDLVEWLKLHPTYTVDM [R16W], DPDTRIPVINLEDGTCLVGEDAPKNKDLVEWLKLHPTYTVDM [R16C] is higher in abundance fitness: -0.173 ± 0.069 for the first, 0.154 ± 0.069 for the second.

DPDTRIPVINLEDGTALVGEDAPKNKDLVEWLKLHPTYTVDM [R16A] and DPDTRIPVINLEDGTKLVGEDAPKNKDLVEWLKLHPTYTVDM [R16K] are within error of each other in abundance fitness: -0.039 ± 0.067 for the first, 0.06 ± 0.17 for the second.

DPDTRIPVINLEDGTHLVGEDAPKNKDLVEWLKLHPTYTVDM [R16H] and DPDTRIPVINLEDGTQLVGEDAPKNKDLVEWLKLHPTYTVDM [R16Q] are within error of each other in abundance fitness: 0.071 ± 0.077 for the first, -0.23 ± 0.43 for the second.

DPDTRIPVINLEDGTLLVGEDAPKNKDLVEWLKLHPTYTVDM [R16L] and DPDTRIPVINLEDGTMLVGEDAPKNKDLVEWLKLHPTYTVDM [R16M] are within error of each other in abundance fitness: -0.077 ± 0.39 for the first, 0.502 ± 0.24 for the second.

DPDTRIPVINLEDATRLVGEDAPKNKDLVEWLKLHPTYTVDM [G14A] and DPDTRIPVINLEDCTRLVGEDAPKNKDLVEWLKLHPTYTVDM [G14C] are within error of each other in abundance fitness: -0.115 ± 0.08 for the first, -0.226 ± 0.22 for the second.

DPDTRIPVINLEDRTRLVGEDAPKNKDLVEWLKLHPTYTVDM [G14R] and DPDTRIPVINLEDSTRLVGEDAPKNKDLVEWLKLHPTYTVDM [G14S] are within error of each other in abundance fitness: -0.168 ± 0.074 for the first, -0.141 ± 0.071 for the second.

Going from DPDTRIPVINLEDQTRLVGEDAPKNKDLVEWLKLHPTYTVDM [G14Q] to DPDTRIPVINLEDLTRLVGEDAPKNKDLVEWLKLHPTYTVDM [G14L], the abundance fitness falls from 0.007 ± 0.11 to -0.424 ± 0.089.

DPDTRIPVINLEDMTRLVGEDAPKNKDLVEWLKLHPTYTVDM [G14M] and DPDTRIPVINLEDETRLVGEDAPKNKDLVEWLKLHPTYTVDM [G14E] are within error of each other in abundance fitness: 0.114 ± 0.071 for the first, -0.012 ± 0.09 for the second.

DPDTRIPVINLEDNTRLVGEDAPKNKDLVEWLKLHPTYTVDM [G14N] and DPDTRIPVINLEDWTRLVGEDAPKNKDLVEWLKLHPTYTVDM [G14W] are within error of each other in abundance fitness: 0.152 ± 0.1 for the first, -0.084 ± 0.29 for the second.

DPDTRIPVINLEDTTRLVGEDAPKNKDLVEWLKLHPTYTVDM [G14T] and DPDTRIPVINLEDFTRLVGEDAPKNKDLVEWLKLHPTYTVDM [G14F] are within error of each other in abundance fitness: -0.275 ± 0.14 for the first, -0.277 ± 0.16 for the second.

DPDTRIPVINLEDDTRLVGEDAPKNKDLVEWLKLHPTYTVDM [G14D] and DPDTRIPVINLEDGTRQVGEDAPKNKDLVEWLKLHPTYTVDM [L17Q] are within error of each other in abundance fitness: -0.146 ± 0.14 for the first, -0.124 ± 0.086 for the second.

Going from DPDTRIPVINLEDGTRCVGEDAPKNKDLVEWLKLHPTYTVDM [L17C] to DPDTRIPVINLEDGTRIVGEDAPKNKDLVEWLKLHPTYTVDM [L17I], the abundance fitness rises from -0.272 ± 0.051 to -0.012 ± 0.072.

DPDTRIPVINLEDGTRGVGEDAPKNKDLVEWLKLHPTYTVDM [L17G] and DPDTRIPVINLEDGTRNVGEDAPKNKDLVEWLKLHPTYTVDM [L17N] are within error of each other in abundance fitness: -0.371 ± 0.056 for the first, -0.351 ± 0.17 for the second.

DPDTRIPVINLEDGTRYVGEDAPKNKDLVEWLKLHPTYTVDM [L17Y] and DPDTRIPVINLEDGTRTVGEDAPKNKDLVEWLKLHPTYTVDM [L17T] are within error of each other in abundance fitness: -0.217 ± 0.063 for the first, -0.308 ± 0.12 for the second.

Compared with DPDTRIPVINLEDGTRPVGEDAPKNKDLVEWLKLHPTYTVDM [L17P], DPDTRIPVINLEDGTRDVGEDAPKNKDLVEWLKLHPTYTVDM [L17D] is higher in abundance fitness: -1.01 ± 0.27 for the first, -0.41 ± 0.064 for the second.

Going from DPDTRIPVINLEDGTRMVGEDAPKNKDLVEWLKLHPTYTVDM [L17M] to DPDTRIPVINLEDGTRFVGEDAPKNKDLVEWLKLHPTYTVDM [L17F], the abundance fitness falls from 0.151 ± 0.073 to -0.191 ± 0.13.

Compared with DPDTRIPVINLEDGTRVVGEDAPKNKDLVEWLKLHPTYTVDM [L17V], DPDTRIPVINLEDGTRRVGEDAPKNKDLVEWLKLHPTYTVDM [L17R] is higher in abundance fitness: -0.17 ± 0.055 for the first, -0.046 ± 0.064 for the second.

First: DPDTRIPVINLEDGTRWVGEDAPKNKDLVEWLKLHPTYTVDM [L17W]
Second: DPDTRIPVINLEDGTREVGEDAPKNKDLVEWLKLHPTYTVDM [L17E]
The abundance fitness of the first is lower: -0.527 ± 0.08 for the first, -0.321 ± 0.12 for the second.

DPDTRIPVINLEDGTRSVGEDAPKNKDLVEWLKLHPTYTVDM [L17S] and DPDTRIPVINLEDGTRHVGEDAPKNKDLVEWLKLHPTYTVDM [L17H] are within error of each other in abundance fitness: -0.421 ± 0.06 for the first, -0.095 ± 0.41 for the second.

First: DPDTRIPVINLENGTRLVGEDAPKNKDLVEWLKLHPTYTVDM [D13N]
Second: DPDTRIPVINLEGGTRLVGEDAPKNKDLVEWLKLHPTYTVDM [D13G]
The abundance fitness of the first is higher: 0.046 ± 0.087 for the first, -0.268 ± 0.078 for the second.

DPDTRIPVINLEVGTRLVGEDAPKNKDLVEWLKLHPTYTVDM [D13V] and DPDTRIPVINLELGTRLVGEDAPKNKDLVEWLKLHPTYTVDM [D13L] are within error of each other in abundance fitness: -0.421 ± 0.071 for the first, -0.627 ± 0.27 for the second.

First: DPDTRIPVINLEHGTRLVGEDAPKNKDLVEWLKLHPTYTVDM [D13H]
Second: DPDTRIPVINLEAGTRLVGEDAPKNKDLVEWLKLHPTYTVDM [D13A]
The abundance fitness of the first is lower: -1.01 ± 0.3 for the first, -0.183 ± 0.18 for the second.

DPDTRIPVINLEDGTRLHGEDAPKNKDLVEWLKLHPTYTVDM [V18H] and DPDTRIPVINLEDGTRLCGEDAPKNKDLVEWLKLHPTYTVDM [V18C] are within error of each other in abundance fitness: -0.047 ± 0.069 for the first, 0.074 ± 0.076 for the second.

Going from DPDTRIPVINLEDGTRLQGEDAPKNKDLVEWLKLHPTYTVDM [V18Q] to DPDTRIPVINLEDGTRLPGEDAPKNKDLVEWLKLHPTYTVDM [V18P], the abundance fitness falls from 0.108 ± 0.087 to -0.372 ± 0.11.

DPDTRIPVINLEDGTRLRGEDAPKNKDLVEWLKLHPTYTVDM [V18R] and DPDTRIPVINLEDGTRLFGEDAPKNKDLVEWLKLHPTYTVDM [V18F] are within error of each other in abundance fitness: -0.081 ± 0.055 for the first, -0.165 ± 0.079 for the second.

DPDTRIPVINLEDGTRLIGEDAPKNKDLVEWLKLHPTYTVDM [V18I] and DPDTRIPVINLEDGTRLTGEDAPKNKDLVEWLKLHPTYTVDM [V18T] are within error of each other in abundance fitness: 0.155 ± 0.079 for the first, 0.118 ± 0.095 for the second.

DPDTRIPVINLEDGTRLKGEDAPKNKDLVEWLKLHPTYTVDM [V18K] and DPDTRIPVINLEDGTRLEGEDAPKNKDLVEWLKLHPTYTVDM [V18E] are within error of each other in abundance fitness: -0.154 ± 0.16 for the first, 0.039 ± 0.068 for the second.

Compared with DPDTRIPVINLEDGTRLDGEDAPKNKDLVEWLKLHPTYTVDM [V18D], DPDTRIPVINLEDGTRLNGEDAPKNKDLVEWLKLHPTYTVDM [V18N] is lower in abundance fitness: 0.147 ± 0.072 for the first, -0.06 ± 0.063 for the second.

From the Human Domainome abundance scans (Beltran et al. 2025)
